The source of these data is patent publication US20090130123A1 (published 2009).

Test [1] concerns the target T1, WNV E protein DIII displayed on yeast (Saccharomyces cerevisiae; West Nile …, UniProt Q9Q6P4 586-705).
T1 construct: domain: DIII; also called WNV DIII
T1 sequence: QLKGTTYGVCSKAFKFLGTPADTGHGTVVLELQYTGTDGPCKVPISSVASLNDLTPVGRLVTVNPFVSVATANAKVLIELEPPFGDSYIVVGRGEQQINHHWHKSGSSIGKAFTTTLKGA
The test can be described thus: flow cytometry on yeast displaying WNV E DIII (pYD1); % positive cells.

The target of test [2] is West Nile virus E protein on WNV strain 2741 virions (West Nile virus, UniProt Q9Q6P4 291-791). Briefly: cell-based or functional assay.
The target of test [3] is T2, Recombinant WNV-E protein ectodomain (West Nile virus, UniProt Q9Q6P4 291-700).
T2 construct: extracellular domain; also called rWNV-E; WNE
T2 sequence (looked up): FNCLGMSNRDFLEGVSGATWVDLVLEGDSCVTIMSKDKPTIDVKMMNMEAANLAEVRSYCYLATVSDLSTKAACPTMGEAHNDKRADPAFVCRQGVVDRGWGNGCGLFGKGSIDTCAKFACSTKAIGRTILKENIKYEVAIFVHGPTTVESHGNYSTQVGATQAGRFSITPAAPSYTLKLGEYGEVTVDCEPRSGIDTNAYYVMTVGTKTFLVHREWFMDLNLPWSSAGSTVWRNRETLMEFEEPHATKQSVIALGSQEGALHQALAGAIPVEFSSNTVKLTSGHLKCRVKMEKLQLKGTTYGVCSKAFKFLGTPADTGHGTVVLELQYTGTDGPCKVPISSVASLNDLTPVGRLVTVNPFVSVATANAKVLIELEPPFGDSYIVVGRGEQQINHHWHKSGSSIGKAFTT
Briefly: SPR (Biacore 3000); scFv on NTA chip via His tag, rWNV-E in solution.

Sequence of West Nile virus E protein on WNV strain 2741 virions (Q9Q6P4 291-791 limits assumed): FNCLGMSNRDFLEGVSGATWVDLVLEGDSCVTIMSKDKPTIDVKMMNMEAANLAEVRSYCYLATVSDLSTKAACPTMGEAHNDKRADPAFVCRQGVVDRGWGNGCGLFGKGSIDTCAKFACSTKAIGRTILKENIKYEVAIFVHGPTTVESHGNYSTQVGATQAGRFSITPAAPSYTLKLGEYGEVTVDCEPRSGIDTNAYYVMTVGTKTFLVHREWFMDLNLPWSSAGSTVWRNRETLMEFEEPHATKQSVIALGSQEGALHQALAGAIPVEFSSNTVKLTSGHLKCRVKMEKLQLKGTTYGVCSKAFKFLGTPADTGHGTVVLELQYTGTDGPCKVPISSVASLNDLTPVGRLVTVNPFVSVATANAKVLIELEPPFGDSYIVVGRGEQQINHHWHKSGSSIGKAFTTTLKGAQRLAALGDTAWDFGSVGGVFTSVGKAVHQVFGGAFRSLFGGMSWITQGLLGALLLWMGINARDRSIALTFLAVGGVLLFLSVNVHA

B1: scFv-Fc 11 (Fc fusion)
chain: QVQLVQSGAEVKKPGASVKVSCKASGYTFSGYSTHWLRQVPGQGLEWIGWDNPSSGDTTYAENFRGRVTLTRDTSITTDYLEVRGLRSDDTAVYYCARGGDDYSFDHWGQGTLVTVSSGGGGSGGGGSGGGGSSSELTQDPAVSVALGQTVRITCRGDSLRSYYASWYQQKPGQAPVLVIYGENNRPSGIPDRFSGSSSGDTASLTITGAQAEDEADYYCNSRDSSDHLLLFGGGTKL
notes: also called 11 scFv-Fc
Turning to B1, in test [1], the binding result is “no binding”. The “PRNT80 titer (µg/ml), plaque reduction neutralization of WNV on Vero cells” value in test [2] was found to be 1.25 µg/mL.

B2: 84 scFv-Fc (Fc fusion)
chain: QVQLVQSGAEVKKPGASVKVSCKASGYTFSGYSTHWLRQVPGQGLEWIGWDNPSSGDTTYAENFRGRVTLTRDTSITTDYLEVRGLRSDDTAVYYCARGGDDYSFDHWGQGTLVTVSSGGGGSGGGGSGGGGSQSVLTQPPSVSVAPGKTARIPCGGNNSGTKSVHWYQQKPGQAPVLVIYDDRVRPSGIPERFSGSNSGDTATLTISRVAAGDEADYYCQVSDGSGDPPTWVFGGGTRLTVL
notes: also called scFv-Fc 84
Consider B2, for which the binding result in test [1] was “no binding”. Moreover, the “PRNT80 titer (µg/ml), plaque reduction neutralization of WNV on Vero cells” value in test [2] was found to be 12.5 µg/mL.

B3: scFv 85 (scFv, not shown: small tags and cut ends)
scFv: MAQVQLVQSGAEVKKPGASVKVSCKASGYTFSGYSTHWLRQVPGQGLEWIGWDNPSSGDTTYAENFRGRVTLTRDTSITTDYLEVRGLRSDDTAVYYCARGGDDYSFDHWGQGTLVTVSSGGGGSGGGGSGGGGSSSELTQDPAVSVALGQTVTITCQGGGLRNYYASWYQQKPGQAPVLLVYGRDNRPSGIPDRFSGSSSGNTASLTITGAQAEDEADYYCNSRDSSGNHLVFGGGTKLTVLGQPKATPSAAAEQKLISEEDL
notes: also called 85 scFv; antibody 85
Regarding B3, in test [3], the Ka came to 7.45e+08 M⁻¹, the Kd came to 1.34 nM, the koff was 0.00673 s⁻¹ and the kon turned out to be 5.01e+06 M⁻¹ s⁻¹.

B4: scFv 71 (scFv)
scFv: MAQVQLVQSGAEVKKPGASVKVSCKASGYTFSGYSTHWLRQVPGQGLEWIGWDNPSSGDTTYAENFRGRVTLTRDTSITTDYLEVRGLRSDDTAVYYCARGGDDYSFDHWGQGTLVTVSSGGGGSGGGGSGGGGSSYELTQPPSASGTTGQRVTISCSGSSSNIGSNTVNWYQQLPGTAPKLLIYSNNQRPSGVPDRLSGSKSGTSASLAISGLQSEDEADYYCAAWDARLTGPLFGGGTKLSVLRQPKAAPSAAAEQKLISEEDL
notes: also called 71 scFv; antibody 71
As to B4, in test [3], the Ka is 3.64e+07 M⁻¹, the Kd stood at 27.5 nM, the koff came out at 0.00258 s⁻¹ and the kon was determined as 93900 M⁻¹ s⁻¹.

B5: scFv 73 (scFv)
scFv: MAQVQLVQSGAEVKKPGASVKVSCKASGYTFSGYSTHWLRQVPGQGLEWIGWDNPSSGDTTYAENFRGRVTLTRDTSITTDYLEVRGLRSDDTAVYYCARGGDDYSFDHWGQGTLVTVSSGGGGSGGGGSGGGGSSYELTQPPSASGTPGQRVTISCSGSSSNIGSNTVNWYQQLPGTAPKLLIYSNNQRPSGVPDRFSGSKSGTSASLAISGLQSEDEADYYCAAWDARLTGPLFGGGTKLSVLRQPKAAPSAAAEQKLISEEDL
notes: also called 73 scFv; antibody 73
With B5, in test [3], the Ka is 2.3e+08 M⁻¹, the Kd is 4.35 nM, the koff was found to be 0.00225 s⁻¹ and the kon is 517000 M⁻¹ s⁻¹.

B6: scFv 69 (scFv, not shown: small tags and cut ends)
scFv: MAQVQLVQSGAEVKEPGSSVKVSCKASGGTFSNYPISWVRQAPGQGLEWMGGIIPITNSPGYAQKFQGRVTISADESTGTVYMELSSLRSEDTAIYYCAKDPNRYESGVLHYWHGLDVWGQGTTVTVSSGGGGSGGGGSGGGGSLPVLTQPPSASGTPGQTVTLSCSGSSSNIGSNTVNWYQQLPGTAPKLLIYSNNQRPSGVPDRFSASKSGTSASLAITGLQAEDEADYFCAAWDDSLVYVFGTGTKVTVLGQPKAAPSAAAEQKLISEEDL
notes: also called 69 scFv; antibody 69
Take B6: in test [3], the Ka came out at 1.69e+07 M⁻¹ and the Kd was determined as 59.2 nM.

B7: scFv-Fc 15 (Fc fusion)
chain: QVQLVQSGAEVKKPGASVKVSCKASGYTFSGYSTHWLRQVPGQGLEWIGWDNPSSGDTTYAENFRGRVTLTRDTSITTDYLEVRGLRSDDTAVYYCARGGDDYSFDHWGQGTLVTVSSGGGGSGGGGSGGGGSQSALTQPASVSGSPGQSITISCTGTNSDVGIYNLVSWYQQHPGKAPKLMIYDVSNRPSGVSSRFSGSNSGNTATLTISGLQAEDEADYYCSAHAGDNTQFGGGTKLTVLS
notes: also called 15 scFv-Fc
Regarding B7, the binding result in test [1] is given as “no binding”. Besides, the “PRNT80 titer (µg/ml), plaque reduction neutralization of WNV on Vero cells” value in test [2] came to 1.25 µg/mL.

B8: scFv-Fc 71 (Fc fusion)
chain: QVQLVQSGAEVKKPGASVKVSCKASGYTFSGYSTHWLRQVPGQGLEWIGWDNPSSGDTTYAENFRGRVTLTRDTSITTDYLEVRGLRSDDTAVYYCARGGDDYSFDHWGQGTLVTVSSGGGGSGGGGSGGGGSSYELTQPPSASGTTGQRVTISCSGSSSNIGSNTVNWYQQLPGTAPKLLIYSNNQRPSGVPDRLSGSKSGTSASLAISGLQSEDEADYYCAAWDARLTGPLFGGGTKLSVLR
notes: also called 71 scFv-Fc
For B8, the binding result in test [1] is recorded as “no binding”. Besides, the “PRNT80 titer (µg/ml), plaque reduction neutralization of WNV on Vero cells” value in test [2] turned out to be 2.5 µg/mL.

B9: scFv-Fc 73 (Fc fusion)
chain: QVQLVQSGAEVKKPGASVKVSCKASGYTFSGYSTHWLRQVPGQGLEWIGWDNPSSGDTTYAENFRGRVTLTRDTSITTDYLEVRGLRSDDTAVYYCARGGDDYSFDHWGQGTLVTVSSGGGGSGGGGSGGGGSSYELTQPPSASGTPGQRVTISCSGSSSNIGSNTVNWYQQLPGTAPKLLIYSNNQRPSGVPDRFSGSKSGTSASLAISGLQSEDEADYYCAAWDARLTGPLFGGGTKLSVLR
notes: also called 73 scFv-Fc
B9: the binding result in test [1] is “no binding”. Also, the “PRNT80 titer (µg/ml), plaque reduction neutralization of WNV on Vero cells” value in test [2] stood at 1.25 µg/mL.

B10: 10 (Fc fusion)
scFv-Fc chain: QVQLVQSGAEVKKPGSSVKVSCKASGYTFSGYSTHWLRQVPGQGLEWIGWDNPSSGDTTYAENFRGRVTLTRDTSITTDYLEVRGLRSDDTAVYYCARGGDDYSFDHWGQGTLVTVSSSGGGSGGGGSGGGGSQTVVTQEPSFSVSPGGTITLTCGLSSGSVFTSYYPSWYQQTPGQAPRTLIYSTNTRSSGVPDRFSGSILGNKAALTITGAQADDESDYYCVLYMGSGIGVFGTGTKVTVLG
notes: also called scFv-Fc 10; 10 scFv-Fc
Consider B10, for which the binding result in test [1] is listed as “no binding”.

B11: scFv 11 (scFv)
scFv: MAQVQLVQSGAEVKKPGASVKVSCKASGYTFSGYSTHWLRQVPGQGLEWIGWDNPSSGDTTYAENFRGRVTLTRDTSITTDYLEVRGLRSDDTAVYYCARGGDDYSFDHWGQGTLVTVSSGGGGSGGGGSGGGGSSSELTQDPAVSVALGQTVRITCRGDSLRSYYASWYQQKPGQAPVLVIYGENNRPSGIPDRFSGSSSGDTASLTITGAQAEDEADYYCNSRDSSDHLLLFGGGTKLTVLGQPKATPSAAAEQKLISEEDL
notes: also called 11 scFv; antibody 11
Turning to B11, in test [3], the Ka is 2.03e+08 M⁻¹, the equilibrium dissociation constant (Kd) was found to be 4.92 nM, the koff worked out at 0.00161 s⁻¹ and the kon turned out to be 326000 M⁻¹ s⁻¹.

B12: scFv 84 (scFv)
scFv: MAQVQLVQSGAEVKKPGASVKVSCKASGYTFSGYSTHWLRQVPGQGLEWIGWDNPSSGDTTYAENFRGRVTLTRDTSITTDYLEVRGLRSDDTAVYYCARGGDDYSFDHWGQGTLVTVSSGGGGSGGGGSGGGGSQSVLTQPPSVSVAPGKTARIPCGGNNSGTKSVHWYQQKPGQAPVLVIYDDRVRPSGIPERFSGSNSGDTATLTISRVAAGDEADYYCQVSDGSGDPPTWVFGGGTRLTVLGQPKAAPSAAAEQKLISEEDL
notes: also called 84 scFv; antibody 84
With B12, in test [3], the Ka is 2.65e+07 M⁻¹, the Kd amounted to 37.8 nM, the koff amounted to 0.00685 s⁻¹ and the kon came out at 181000 M⁻¹ s⁻¹.
